Measured values as given in patent US20190367626A1.

B1: HC1LC3 (antibody, human IgG1, kappa, V domains shown)
VH: QVQLVQSGAEVKKPGATVKISCKVSGYIFTNNDMNWVQQAPGKGLEWMGGIDPGDGRTKYNEKFKGRVTITADESTSTAYMELSSLRSEDTAVYYCGRGGYEFGIDYWGQGTLVTVSS
VL: DIVMTQSPDSLAVSLGERATINCKSSQSLLNSGNQKNSLAWYQQRPGHPPKLLLYGASTRESGVPDRFSGSGSGTDFTLTISSLQAEDVAVYYCQNDHSFPLTFGGGTKVEIKR
B2: HC3LC3 (antibody, human IgG1, kappa, V domains shown)
VH: QVQLVQSGAEVKKPGSSVKVSCKSSGYIFTNNDMNWVRQAPGQGLDWMGGIDPGDGRTKYNEKFKGRVTISADIFSNTAYMELNSLTSEDTAVYFCGRGGYEFGIDYWGQGTTVTVSS
VL: DIVMTQSPDSLAVSLGERATINCKSSQSLLNSGNQKNSLAWYQQRPGHPPKLLLYGASTRESGVPDRFSGSGSGTDFTLTISSLQAEDVAVYYCQNDHSFPLTFGGGTKVEIKR
B3: HC2LC3 (antibody, human IgG1, kappa, V domains shown)
VH: QVQLVQSGAEVKKPGASVKVSCKASGYIFTNNDMNWVRQAPGQGLEWMGGIDPGDGRTKYNEKFKGRVTMTRDTSTNTVYMELSSLTSEDTAVYFCGRGGYEFGIDYWGQGTTVTVSS
VL: DIVMTQSPDSLAVSLGERATINCKSSQSLLNSGNQKNSLAWYQQRPGHPPKLLLYGASTRESGVPDRFSGSGSGTDFTLTISSLQAEDVAVYYCQNDHSFPLTFGGGTKVEIKR
B4: HC4LC3 (antibody, human IgG1, kappa, V domains shown)
VH: QVQLVESGAEVKKPGASVKVSCKVSGYIFTNNDMNWVRQAPGEGLEWMGGIDPGDGRTKYNEKFKGRVTMTEDTSTDTAYMELSSLRSEDTAVYYCGRGGYEFGIDYWGQGTTVTVSS
VL: DIVMTQSPDSLAVSLGERATINCKSSQSLLNSGNQKNSLAWYQQRPGHPPKLLLYGASTRESGVPDRFSGSGSGTDFTLTISSLQAEDVAVYYCQNDHSFPLTFGGGTKVEIKR
B5: HC0LC0 (antibody, human IgG1, kappa, V domains shown)
VH: QVQLQQSGPELVKPGASVKISCKASGYIFTNNDMNWVKQRPGQGLEWIGGIDPGDGRTKYNEKFKGKATLTADKFSNTVYMQLSSLTSENSAVYFCGRGGYEFGIDYWGQGTSVTVSS
VL: DIVMTQSPSSLSVSAGEKVTMSCKSSQSLLNSGNQKNSLAWYQQKPGRPPTLLISGASTRESGVPDRFTGSGSGTDFTLTISSVQAEDLAVYYCQNDHSFPLTFGAGTKLELKR

Biological target: TRAILshort (UniProt P50591)
Sequence (P50591 other isoform, or with tags, fused parts or gaps): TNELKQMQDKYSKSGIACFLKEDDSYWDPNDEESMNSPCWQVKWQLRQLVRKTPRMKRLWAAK
Assay: SPR

Binder | Kd
B1 | 10 pM
B2 | 4.5 pM
B3 | 3.8 pM
B4 | 31 pM
B5 | 3 pM
